Source: patent publication US20110184152A1

Key:
[1] = target: mouse serum albumin (mouse) (UniProt P07724); assay: SPR (Biacore), purified construct
[2] = target: human serum albumin (human) (UniProt P02768); assay: SPR (BIAcore)

Kd [1]	Kd [2]	koff [2]	kon [2]	Binder
59.6 nM	–	–	–	FabB-648dsFv (2xG4S) (bispecific antibody, part only; not given: anti-OX40 Fab and linkers, V domains shown, not shown: another chain or arm of the molecule; a dimerising Fc or GST; small tags and cut ends, Engineered interchain disulphide between VH Cys44 and VL Cys100 (Kabat; linear position 103 of the VL).) VH: EVQLVESGGGLVQPGGSLRLSCAVSGFSLSRYAMTWVRQAPGKCLEWIGTITTGGNTNYANWAKGRFTISKDSTTVYLQMNSLRAEDTAVYYCARGGYVSYADATELSLWGQGTLVTVSS VL: DIVMTQSPSTLSASVGDRVTITCQASQSIGSRLAWYQQKPGKAPKLLIYYASTVASGVPSRFKGSGSGTEFTLTISSLQPDDFATYYCQSYDYSSSSSYAFGCGTKVEIK
–	51.6 nM	0.0186 s⁻¹	360000 M⁻¹ s⁻¹	FabB-645dsFv (S3×G4S), Fv heavy mutation T100aA (bispecific antibody, part only; not given: anti-OX40 Fab and linkers, V domains shown, not shown: another chain or arm of the molecule; small tags and cut ends, Interchain disulfide between VH Cys44 and VL Cys100 (Kabat) of the dsFv) VH: EVQLLESGGGLVQPGGSLRLSCAVSGIDLSNYAINWVRQAPGKCLEWIGIIWASGTTFYATWAKGRFTISRDSTTVYLQMNSLRAEDTAVYYCARTVPGYSAAPYFDLWGQGTLVTVSS VL: DIVMTQSPSSVSASVGDRVTITCQSSPSVWSNFLSWYQQKPGKAPKLLIYEASKLTSGVPSRFKGSGSGTDFTLTISSLQPEDFATYYCGGGYSSISDTTFGCGTKVEIK
